Patent US5569830

Biological target: polygalacturonase (endo-PG) from the culture filtrate of Botrytis cinerea DEL 11 (Botrytis cinerea DEL 11)

B1: pear polygalacturonase inhibitor protein (PGIP) purified from Pyrus communis L. cv Bartlett fruit (protein)
chain: DLCNPDDKKVLLQIKKAFGDPYVLASWKSDTDCCDWYCVTCDSTTNRINSLTIFAGQVSGQIPALVGDLPYLETLEFHKQPNLTGPIQPAIAKLKGLKSLRLSWTNLSGSVPDFLSQLKNLTFLDLSFNNLTGAIPSSLSELPNLGALRLDRNKLTGHIPISFGQFIGNVPDLYLSHNQLSGNIPTSFAQMDFTSIDLSRNKLEGDASVIFGLNKTTQIVDLSRNLLEFNLSKVEFPTSLTSVDINHNKIYGSIPVEFTQLNFQFLNVSYNRLCGQIPVGGKLQSFDEYSYFHNRCLCGAPLPSCK
modifications: glycoprotein: N-linked glycans (seven potential N-glycosylation sites; occupied sites not determined)
- release of reducing sugars from sodium polypectate (reducing sugar assay) (times (against the tomato PGIPs)): 20
